{
  "source": "patent US20230203199A1",
  "about": "(published 2023)",
  "binders": {"B1": {"name": "MX846 (bispecific antibody)", "chain 1": "not shown", "chain 2": "QAVVTQEPSLTVSPGGTVTLTCGSSTGAVTTSNYANWVQEKPGQAFRGLIGGTNKRAPGTPARFSGSLLGGKAALTLSGAQPEDEAEYYCALWYSNLWVFGGGTKLTVLGGSGGDIVMTQTPLSLPVTPGEPASISCRSSKSLLHSNGITYLYWYLQKPGQSPQLLIYQMSNLVSGVPDRFSGSGSGTDFTLKISRVEAEDVGVYYCAQNLELPYTFGGGTKVEIKGSGGSAGSGSGGGGSASGSGQVQLVQSGAEVKKPGSSVKVSCKASGYAFSYSWINWVRQAPGQGLEWMGRIFPGDGDTDYNGKFKGRVTITADKSTSTAYMELSSLRSEDTAVYYCARNVFDGYWLVYWGQGTLVTVSSGGSGGEVQLLESGGGLVQPGGSLRLSCAASGFTFSTYAMNWVRQAPGKGLEWVSRIRSKYNNYATYYADSVKGRFTISRDDSKNTLYLQMNSLRAEDTAVYYCVRHGNFGNSYVSWFAYWGQGTLVTVSSASGGSGDKTHTCPPCPAPEAAGGPSVFLFPPKPKDTLMISRTPEVTCVVVDVSHEDPEVKFNWYVDGVEVHNAKTKPREEQYNSTYRVVSVLTVLHQDWLNGKEYKCKVSNKALAAPIEKTISKAKGQPREPQVCTLPPSRDELTKNQVSLSCAVKGFYPSDIAVEWESNGQPENNYKTTPPVLDSDGSFFLVSKLTVDKSRWQQGNVFSCSVMHEALHNHYTQKSLSLSPG"}},
  "target": "T1, hCD20 on transfected Expi293 cells (human, UniProt P11836 1-297)",
  "T1 construct": "whole, on cells",
  "T1 sequence (looked up)": "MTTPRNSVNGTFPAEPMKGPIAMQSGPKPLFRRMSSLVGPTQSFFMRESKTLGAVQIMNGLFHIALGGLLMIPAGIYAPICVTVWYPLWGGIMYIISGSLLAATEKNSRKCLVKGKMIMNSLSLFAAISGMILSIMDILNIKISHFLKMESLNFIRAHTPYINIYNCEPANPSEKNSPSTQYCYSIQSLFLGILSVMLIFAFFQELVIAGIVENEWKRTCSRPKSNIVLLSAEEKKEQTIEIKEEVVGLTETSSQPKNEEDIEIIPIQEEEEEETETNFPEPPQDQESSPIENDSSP",
  "assay": "flow cytometry on Expi293 cells transfected with hCD20, anti-human Fc PE detection",
  "data": [
    {"binder": "B1", "values": [
      {"measurement": "binding result", "value": "binds"}
    ]}
  ]
}
